# B1: MxiM[SctG] (natural protein)
# chain: CALKSSSNSEKEWHIVPVSKDYFSIPNDLLWSFNTTNKSINVYSKCISGKAVYSFNAGKFMGNFNVKEVDGCFMDAQKIAIDKLFSMLKDGVVLKGNKINDTILIEKDGEVKLKLIRGI
# modifications: lipidated N-terminus
# notes: MxiM[SctG], pilotin of the Shigella flexneri T3SS; also called pilotin; pilot protein
# Biological target: T1, MxiD[SctC] (Shigella flexneri, UniProt Q04641 23-566)
# T1 construct: the last 18 residues (S549-Y566) are not resolved; 16 subunits in the connector (N0, N1), 15 in the OM ring (N3, secretin, S domain); also called secretin; OM ring
# T1 sequence: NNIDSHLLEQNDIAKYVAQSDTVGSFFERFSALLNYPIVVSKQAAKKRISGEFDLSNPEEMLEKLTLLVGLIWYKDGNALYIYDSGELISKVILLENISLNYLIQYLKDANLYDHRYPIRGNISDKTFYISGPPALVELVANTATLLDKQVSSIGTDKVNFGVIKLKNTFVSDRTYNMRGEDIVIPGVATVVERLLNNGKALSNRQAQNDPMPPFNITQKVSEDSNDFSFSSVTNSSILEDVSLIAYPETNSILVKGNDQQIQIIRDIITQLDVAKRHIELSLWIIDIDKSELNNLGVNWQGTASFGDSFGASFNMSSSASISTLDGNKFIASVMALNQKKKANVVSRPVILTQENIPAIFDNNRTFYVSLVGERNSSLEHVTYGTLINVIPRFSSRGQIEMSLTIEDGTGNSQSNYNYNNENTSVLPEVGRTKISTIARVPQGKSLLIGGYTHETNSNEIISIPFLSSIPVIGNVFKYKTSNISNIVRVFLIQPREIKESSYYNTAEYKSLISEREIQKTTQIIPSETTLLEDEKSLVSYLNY
# Test: cross-linking; BS3 cross-linking mass spectrometry of the isolated needle complex; 0.2-0.3 mM BS3, 30 min, room temperature; 2% FDR at residue-pair level
# Details: both partners purified
binder,measurement,value
B1,binding result,binds
